Test results: patent US20180222952A1 (NEW YORK UNIVERSITY, published 2018)
Each block holds one binder with its values, some of them ahead of it.

B3: Recombinant His-tag PGRN protein (full length progranulin) (ligand)
chain: TRCPDGQFCPVACCLDPGGASYSCCRPLLDKWPTTLSRHLGGPCQVDAHCSAGHSCIFTVSGTSSCCPFPEAVACGDGHHCCPRGFHCSADGRSCFQRSGNNSVGAIQCPDSQFECPDFSTCCVMVDGSWGCCPMPQASCCEDRVHCCPHGAFCDLVHTRCITPTGTHPLAKKLPAQRTNRAVALSSSVMCPDARSRCPDGSTCCELPSGKYGCCPMPNATCCSDHLHCCPQDTVCDLIQSKCLSKENATTDLLTKLPAHTVGDVKCDMEVSCPDGYTCCRLQSGAWGCCPFTQAVCCEDHIHCCPAGFTCDTQKGTCEQGPHQVPWMEKAPAHLSLPDPQALKRDVPCDNVSSCPSSDTCCQLTSGEWGCCPIPEAVCCSDHQHCCPQGYTCVAEGQCQRGSEIVAGLEKMPARRASLSHPRDIGCDQHTSCPVGQTCCPSLGGSWACCQLPHAVCCEDRQHCCPAGYTCNVKARSCEKEVVSAQPATFLARSPHVGVKDVECGEGHFCHDNQTCCRDNRQGWACCPYRQGVCCADRRHCCPAGFRCAARGTKCLRREAPRWDAPLRDPALRQLL
notes: also called rPGRN; His-tagged PGRN; not shown: His tag
B4: Recombinant GBA (glucocerebrosidase; R&D Systems Cat. No. 7410-GH-010) (enzyme, UniProt P04062 40-536, looked up)
chain: ARPCIPKSFGYSSVVCVCNATYCDSFDPPTFPALGTFSRYESTRSGRRMELSMGPIQANHTGTGLLLTLQPEQKFQKVKGFGGAMTDAAALNILALSPPAQNLLLKSYFSEEGIGYNIIRVPMASCDFSIRTYTYADTPDDFQLHNFSLPEEDTKLKIPLIHRALQLAQRPVSLLASPWTSPTWLKTNGAVNGKGSLKGQPGDIYHQTWARYFVKFLDAYAEHKLQFWAVTAENEPSAGLLSGYPFQCLGFTPEHQRDFIARDLGPTLANSTHHNVRLLMLDDQRLLLPHWAKVVLTDPEAAKYVHGIAVHWYLDFLAPAKATLGETHRLFPNTMLFASEACVGSKFWEQSVRLGSWDRGMQYSHSIITNLLYHVVGWTDWNLALNPEGGPNWVRNFVDSPIIVDITKDTFYKQPMFYHLGHFSKFIPEGSQRVGLVASQKNDLDAVALMHPDGSAVVVVLNRSSKDVPLTIKDPAVGFLETISPGYSIHTYLWRRQ
modifications: biotin-labeled (EZ-Link Sulfo-NHS-LC-Biotin) in the solid phase binding assays; unlabeled in SPR
notes: also called GCase; biotin-labeled GBA

Tests used:
[1] = biological target: B4; assay: solid phase binding, Pcgin coated, biotin-labeled GCase, ELISA-based detection
Description: (§1) Pcgin was coated on a 96-well plate and incubated with biotin-labeled GCase, HSP70, and Sortilin (serving as a positive control) respectively. The direct binding was detected by ELISA-based method.
(§2) Pcgin was then expressed in bacteria and purified as a His-tagged protein. The purity was examined by Coomassie Blue staining and confirmed by Western blotting with His probe (FIG. 10). […] Although Pcgin retained GCase and HSP70 binding activity of PGRN, it lacked PGRN's oncogenic activity, including PGRN-activated oncogenic signaling and cell proliferation (data not shown).

[2] = biological target: T1, Recombinant sortilin (R&D Systems Cat. No. 3154-ST-050) (UniProt Q99523 78-755, biotin-labeled in the solid phase binding assay of FIG. 11; unlabeled in SPR); assay: solid phase binding, Pcgin coated, biotin-labeled sortilin (positive control), ELISA-based detection
T1 construct: also called biotin-labeled Sortilin
T1 sequence (looked up): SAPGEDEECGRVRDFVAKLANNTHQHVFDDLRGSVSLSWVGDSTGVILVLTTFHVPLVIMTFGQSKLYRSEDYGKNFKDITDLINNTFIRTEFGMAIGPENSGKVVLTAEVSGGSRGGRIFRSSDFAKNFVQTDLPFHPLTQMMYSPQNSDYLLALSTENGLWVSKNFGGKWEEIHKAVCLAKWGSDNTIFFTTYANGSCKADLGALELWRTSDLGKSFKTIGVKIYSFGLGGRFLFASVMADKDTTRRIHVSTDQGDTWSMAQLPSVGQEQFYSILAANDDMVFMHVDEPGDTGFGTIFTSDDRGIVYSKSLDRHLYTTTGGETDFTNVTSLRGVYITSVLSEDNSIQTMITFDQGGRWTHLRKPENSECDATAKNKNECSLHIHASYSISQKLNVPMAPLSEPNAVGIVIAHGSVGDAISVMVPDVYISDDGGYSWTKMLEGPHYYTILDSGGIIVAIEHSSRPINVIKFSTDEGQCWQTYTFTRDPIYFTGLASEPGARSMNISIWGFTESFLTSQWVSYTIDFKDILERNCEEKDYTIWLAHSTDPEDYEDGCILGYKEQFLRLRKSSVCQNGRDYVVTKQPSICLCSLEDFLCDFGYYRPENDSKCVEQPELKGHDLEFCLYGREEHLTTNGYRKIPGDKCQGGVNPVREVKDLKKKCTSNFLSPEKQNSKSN
Description: as §1, §2

[3] = biological target: HSP70 expressed from a plasmid in transfected 293T cells (UniProt P0DMV8 1-641); assay: co-IP from co-transfected 293T cells: IP anti-GFP, IB anti-HSP70
Chain of HSP70 expressed from a plasmid in transfected 293T cells (P0DMV8 whole entry, the tested form may be a part): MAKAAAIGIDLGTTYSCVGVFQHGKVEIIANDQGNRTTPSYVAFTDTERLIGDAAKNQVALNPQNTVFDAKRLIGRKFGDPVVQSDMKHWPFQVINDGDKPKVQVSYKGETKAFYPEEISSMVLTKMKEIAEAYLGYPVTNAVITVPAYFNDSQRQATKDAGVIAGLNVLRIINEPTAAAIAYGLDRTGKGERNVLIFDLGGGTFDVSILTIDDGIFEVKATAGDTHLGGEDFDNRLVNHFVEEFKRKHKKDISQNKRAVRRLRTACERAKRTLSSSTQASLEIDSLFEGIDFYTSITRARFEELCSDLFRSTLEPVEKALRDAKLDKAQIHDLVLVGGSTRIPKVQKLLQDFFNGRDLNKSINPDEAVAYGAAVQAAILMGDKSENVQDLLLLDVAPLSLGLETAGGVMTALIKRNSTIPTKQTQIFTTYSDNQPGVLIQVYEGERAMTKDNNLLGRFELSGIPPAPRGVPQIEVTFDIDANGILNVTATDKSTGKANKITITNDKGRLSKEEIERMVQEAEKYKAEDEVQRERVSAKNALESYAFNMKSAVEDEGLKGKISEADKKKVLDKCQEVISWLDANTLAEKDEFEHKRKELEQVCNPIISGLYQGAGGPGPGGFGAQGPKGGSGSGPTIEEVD
Excerpt: (§3) FIG. 8 depicts that Pcgin/ND7 fragment of PGRN has binding motifs for GCase and HSP70. (A) Scheme of Pcgin amino acid structure and its deletion mutants. (B) Co-IP assays for examining the binding of Pcgin and its mutants to GCase and HSP70. 293T cells were transfected with plasmids encoding either GFP fused Pcgin or its mutants, together with plasmids encoding RFP fused GCase and HSP70, and the protein complexes were immunoprecipitated with GFP antibody and probed with RFP or HSP70 antibodies respectively. […] The result is representative of three independent experiments. (C) Structure and sequence of Pcgin/ND7 fragment of PGRN. […] Sequence of Pcgin (SEQ ID NO:4) is shown in the bottom panel. Linker regions and Gm E are highlighted in green and red, respectively. Binding sites of GCase, HSP70, and Sortilin are indicated.

[4] = biological target: T1, Recombinant sortilin (R&D Systems Cat. …); assay: SPR, SensiQ Pioneer, sortilin immobilised, PGRN injected (OneStep)
[5] = biological target: B3; assay: SPR, SensiQ Pioneer, GBA immobilised, PGRN injected (OneStep)
Description: Surface Plasmon Resonance (SPR): All SPR experiments were done by SensiQ Technologies Inc. (Oklahoma City, Okla.) by using SensiQ Pioneer at a controlled analysis temperature of 25° C., and samples in the instrument sample racks were maintained at 18° C. The running buffer throughout the immobilization and the assay consisted of 10 mM HEPES, 150 mM NaCl, 0.005% Tween 20. Buffer pH was adjusted to pH 7.4, 6.5, 6.0 or 5.5 for individual runs, and for each pH the running buffer was used to prepare PGRN samples and sucrose diffusion standards.
The assay of PGRN was performed with a total of five buffer blank injections and two replicates of 200 nM PGRN, all of which were given a 1 hour dissociation time. The OneStep™ injection was used for this assay to determine kinetic rate constants and the equilibrium dissociation constant from a single gradient inject. Two injections of 3% sucrose in running buffer were performed to serve as a diffusion standard.
Data was analyzed using the QDat Analysis Software (SensiQ Technologies and BioLogic Software). All data were double referenced to a reference channel (channel 2) and buffer blanks. The average signal of the buffer blanks was used to subtract injection artifacts. Referenced SPR data from the analysis channels were model fit to ascertain ka, kd, and KD for the interactions.

[6] = biological target: B3; assay: solid phase binding, PGRN coated, biotin-labeled LIMP2
Description: Solid phase binding: 0.1, 1, 2, and 5 μg/ml PGRN proteins were coated in 96-wells with triplicate wells in PBS for overnight. The plate was washed with 0.1% tween/PBS five times and then blocked with 2% BSA/PBS solution. Two μg BSA, LIMP2 and GBA protein were labeled with biotin followed the protocol of EZ-Link Sulfo-NHS-LC-Biotin and Biotinylation Kits (Thermo Scientific). Biotin-labeled LIMP2, GBA or BSA were added in the plate and incubate for 2 hours. Wash with 0.1% tween/PBS, and coated with streptavidin-HRP (1:2000 dilution) solution for 1 hour. After washing add t h e substrate and stop the reaction with […] H₂SO₄. Read result at UV 450 nm in plate reader.

[7] = biological target: T2, RFP-fused GBA (encoded by pDsRed-GBA) (UniProt P04062 40-536); assay: co-IP from co-transfected 293T cells: IP anti-GFP, IB anti-RFP
T2 construct: also called RFP fused GCase; GCase; not shown: RFP (DsRed) tag
T2 sequence (looked up): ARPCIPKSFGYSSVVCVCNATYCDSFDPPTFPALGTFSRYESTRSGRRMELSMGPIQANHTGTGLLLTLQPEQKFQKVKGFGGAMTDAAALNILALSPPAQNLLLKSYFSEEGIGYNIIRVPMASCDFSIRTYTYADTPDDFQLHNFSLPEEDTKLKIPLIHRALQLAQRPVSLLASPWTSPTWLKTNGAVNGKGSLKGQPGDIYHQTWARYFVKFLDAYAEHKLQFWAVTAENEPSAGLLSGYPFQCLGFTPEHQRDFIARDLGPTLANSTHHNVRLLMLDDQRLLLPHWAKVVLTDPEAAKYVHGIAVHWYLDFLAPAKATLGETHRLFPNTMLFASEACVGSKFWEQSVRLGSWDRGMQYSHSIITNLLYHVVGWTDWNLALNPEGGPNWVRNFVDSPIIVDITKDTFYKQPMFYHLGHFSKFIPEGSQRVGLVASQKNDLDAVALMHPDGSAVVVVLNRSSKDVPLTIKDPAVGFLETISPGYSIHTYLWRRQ
Excerpt: as §3

B2: GFP fused Pcgin/ND7 deletion mutant lacking aa535-539 (RDNRQ) (other)
chain: EKEVVSAQPATFLARSPHVGVKDVECGEGHFCHDNQTCCGWACCPYRQGVCCADRRHCCPAGFRCAARGTKCLRREAPRWDAPLRDPALRQLL
notes: also called ΔRDNRQ; ΔDNRQ; not shown: GFP tag
binding result [3]: no binding

Binder: B3
Kd [4]: 3.67 nM

Binder: B4
Kd [5]: 0.71 nM

Continued, values first:

binding result [1]: binds
binding result [2]: binds
B1: Recombinant Pcgin, His-tagged, expressed in bacteria (other)
chain: EKEVVSAQPATFLARSPHVGVKDVECGEGHFCHDNQTCCRDNRQGWACCPYRQGVCCADRRHCCPAGFRCAARGTKCLRREAPRWDAPLRDPALRQLL
notes: also called ND7; PGRN ND7 fragment; not shown: His tag

binding result [6]: no binding
B5: Recombinant LIMP2 (lysosomal integral membrane protein 2; R&D Systems Cat. No. 1966-LM-050) (receptor, UniProt Q14108 27-432, looked up)
chain: RVFQKAVDQSIEKKIVLRNGTEAFDSWEKPPLPVYTQFYFFNVTNPEEILRGETPRVEEVGPYTYRELRNKANIQFGDNGTTISAVSNKAYVFERDQSVGDPKIDLIRTLNIPVLTVIEWSQVHFLREIIEAMLKAYQQKLFVTHTVDELLWGYKDEILSLIHVFRPDISPYFGLFYEKNGTNDGDYVFLTGEDSYLNFTKIVEWNGKTSLDWWITDKCNMINGTDGDSFHPLITKDEVLYVFPSDFCRSVYITFSDYESVQGLPAFRYKVPAEILANTSDNAGFCIPEGNCLGSGVLNVSICKNGAPIIMSFPHFYQADERFVSAIEGMHPNQEDHETFVDINPLTGIILKAAKRFQINIYVKKLDDFVETGDIRTMVFPVMYLNESVHIDKETASRLKSMINTT
modifications: biotin-labeled (EZ-Link Sulfo-NHS-LC-Biotin)
notes: also called biotin-labeled LIMP2

binding result [7]: no binding
B6: GFP fused Pcgin/ND7 deletion mutant lacking aa523-534 (other)
chain: EKEVVSAQPATFLARSPHVGVKDVECGRDNRQGWACCPYRQGVCCADRRHCCPAGFRCAARGTKCLRREAPRWDAPLRDPALRQLL
notes: not shown: GFP tag
